In patent US20210363269A1 (ALX ONCOLOGY, published 2021):
Substitutions are numbered along the chain they refer to. Names and notes keep the numbering of the source.

T1: NOD mouse SIRP-α (mouse (NOD strain))
T1 chain: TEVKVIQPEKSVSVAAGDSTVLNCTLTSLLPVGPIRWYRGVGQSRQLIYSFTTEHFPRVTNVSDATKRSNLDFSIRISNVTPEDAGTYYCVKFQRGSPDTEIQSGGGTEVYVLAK

T2: BL6 mouse SIRP-α (mouse (C57BL/6 strain), UniProt P97797 32-148)
T2 construct: also called C57BL/6
T2 sequence: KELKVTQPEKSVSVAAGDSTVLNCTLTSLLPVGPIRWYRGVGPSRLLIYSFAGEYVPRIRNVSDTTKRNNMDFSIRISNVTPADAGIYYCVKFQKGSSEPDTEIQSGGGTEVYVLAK

T3: BALBc mouse SIRP-α (mouse (BALB/c strain))
T3 chain: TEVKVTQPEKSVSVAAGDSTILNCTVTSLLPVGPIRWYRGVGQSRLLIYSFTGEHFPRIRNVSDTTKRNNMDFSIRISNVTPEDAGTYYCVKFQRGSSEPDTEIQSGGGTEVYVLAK

T4: mouse 129 SIRP-α D1 domain (mouse (129 strain), UniProt P97797 32-150)
T4 construct: also called m129
T4 chain: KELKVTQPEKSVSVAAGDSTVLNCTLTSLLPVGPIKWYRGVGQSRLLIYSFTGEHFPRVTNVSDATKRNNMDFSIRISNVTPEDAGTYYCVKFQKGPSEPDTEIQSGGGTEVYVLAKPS

T5: C57BL/6 mouse SIRP-α D1 domain (mouse (C57BL/6 strain), UniProt P97797 32-148)
T5 sequence: T2 sequence

T6: high affinity SIRP-α D1 variant CV1-3
T6 chain: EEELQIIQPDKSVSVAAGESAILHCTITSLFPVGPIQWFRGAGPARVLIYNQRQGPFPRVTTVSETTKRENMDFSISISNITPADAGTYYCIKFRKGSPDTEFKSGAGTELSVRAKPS

T7: cynomolgus SIRP-α D1 domain (cyno1) (cynomolgus monkey, UniProt Q5TFQ8 30-148 (human entry), limits assumed)
T7 chain: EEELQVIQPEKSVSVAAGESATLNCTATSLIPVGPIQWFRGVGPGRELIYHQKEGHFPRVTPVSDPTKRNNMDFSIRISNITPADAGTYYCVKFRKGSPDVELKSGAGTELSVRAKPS

T8: cynomolgus SIRP-α D1 domain (cyno2) (cynomolgus monkey, UniProt Q5TFQ8 30-148 (human entry), limits assumed)
T8 chain: T7 chain with E19D, A27V, T28S, V42A, H51N, Q52L, P62A

T9: NOD mouse SIRP-α D1 domain (mouse (NOD strain))
T9 chain: T1 chain

T10: C57BL/6 mouse SIRP-α D1 domain (mouse (C57BL/6 strain), UniProt P97797 32-148)
T10 sequence: T2 sequence

T11: BALB/c mouse SIRP-α D1 domain (mouse (BALB/c strain))
T11 chain: T3 chain

B1: Hum1/AB25_HC_Mutall (antibody, V domains shown)
VH: EVQLVESGGGVVQPGGSLRLSCAASGFTFSSNAMSWVRQAPGKGLEWVAGISSGSDTYYGDSVKGRFTISRDNSKNTLYLQMNSLTAEDTAVYYCARETWNHLFDYWGQGTLVTVSS
VL: SYELTQPPSVSVSPGQTARITCSGGSYSSYYYAWYQQKPGQAPVTLIYSDDKRPSNIPERFSGSSSGTTVTLTISGVQAEDEADYYCGGYDQSSYTNPFGGGTKLTVL
B2: Hum1/AB27_HC_Mutall (antibody, V domains shown)
VH: B1 VH with T28R, N32Y, A49S, S55G, G60V, T86R
VL: B1 VL
B3: Hum8/AB25_HC_Mutall (antibody, V domains shown)
VH: B1 VH
VL: B1 VL with S26A, T45L, L46V, D51S, N56G
B4: Hum9/AB25_HC_Mutall (antibody, V domains shown)
VH: B1 VH
VL: B1 VL with S26A, T45L, L46V, N56G
B5: S149 (scFv, V domains shown)
VH: DVQLVESGGGVVRPGESLRLSCAASGFTFSNFAMNWVRQAPGEGLEWVSLISVTATTYYADSVKGRFTISRDNSKNTLYLQMNSLRAEDTAVYYCAKVTWNNLFDYWGLGTLVTVSS
VL: EIVLTQSPGTLSLSPGERATLSCRASQPIDSYLAWYQQKPGQAPRLLIYNTVTRATGIPDRFSGSGSGTDFTLTINRLEPEDFAVYYCQHQYDWPPYIFGGGTKVEIK
notes: scFv-Fc format (VL-linker-VH on human IgG1 Fc)
B6: S161 (scFv, V domains shown)
VH: B5 VH with N35T, E43K, L45P, I51V, N76S, V98I
VL: EIVLTQSPGTLSLSPGERATLSCRASQTVGSKLAWYQQKPGQAPRLLIYDSSSRASGIPDRFSGSGSGTDFTLTISSLQSEDSAVYYCQQHNDWPPYTFGGGTKVEIK
notes: as for B5
B7: S213 (scFv, V domains shown)
VH: DVQLVESGGGVVRPGESLRLSCEASGFTFRNYYMTWVRQAPGEGLEWVSTISDTGDTAYYADSVKGRFTISRDNSKNSLYLQMNSLRADDTAIYYCAKSWIWWTFFDYWGLGTLVTVSS
VL: ALTQPASVSANLGGTVEITCSGGNSNHYGWYQQKSPGSAPVTLIYADTNRPSNIPSRFSGSTSGSTTTLTITGVQAEDEAVYYCGGSSTGDGIFGAGTTLTVL
notes: also called clone 213
B8: S214 (scFv, V domains shown)
VH: B7 VH with G8E, Y32S, D89E
VL: B7 VL with T67S
B9: antibody 136 variant Mut/mut (antibody, human IgG1, V domains shown)
VH: EVQLVESGGGVVQPGRSLRLSCAASGFTFSSYDVNWVRQAPGKGLEWVSLISGSGEIIYYADSVKGRFTISRDNSKNTLYLQMNSLRAEDTAVYYCAKENNRYRFFDDWGQGTLVTVSS
VL: EIVLTQSPGTLSLSPGERATLSCRASQSVYTYLAWYQQKPGQAPRLLIYGASSRATGIPDRFSGSGSGTEFTLTISSLQSEDFAVYYCQQYYDRPPLTFGGGTKVEIK
notes: Human IgG1 with L234A/L235A/G237A/N297A; Labels are light chain/heavy chain
B10: antibody 136 variant MutRv_I2T/mut (antibody, human IgG1, V domains shown)
VH: B9 VH
VL: B9 VL with I2T
notes: as for B9
B11: antibody 136 variant MutRv_Q38E/mut (antibody, human IgG1, V domains shown)
VH: B9 VH
VL: B9 VL with Q38E
notes: as for B9
B12: antibody 136 variant MutRv_S12T/mut (antibody, human IgG1, V domains shown)
VH: B9 VH
VL: B9 VL with S12T
notes: as for B9
B13: antibody 136 variant MutRv_S22T/mut (antibody, human IgG1, V domains shown)
VH: B9 VH
VL: B9 VL with S22T
notes: as for B9

What follows are binders tested against T12, human SIRP-α v1 (human, UniProt P78324 31-149) (assay: SPR).
T12 construct: also called Human v1; Human V1
T12 sequence (P78324 31-149 limits assumed): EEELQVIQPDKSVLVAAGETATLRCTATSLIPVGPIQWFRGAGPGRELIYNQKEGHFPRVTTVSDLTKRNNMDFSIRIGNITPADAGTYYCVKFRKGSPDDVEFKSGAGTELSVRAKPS
How it was run: (§1)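 KD values were derived as kd/ka from apparent rate constants obtained by globally fitting double-referenced data to a simple Langmuir model. The data came from a ProteOn XPR36 biosensor run at 25° C in PBS pH 7.4 with 0.01% Tween-20. There, purified antibodies sat on a GLC chip by amine coupling or on an NLC chip by biotinylated Protein A capture, and SIRP analytes were injected in one-shot kinetic mode at nominal concentrations set from A280 absorbance.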

Binder	Kd [nM]
B1	0.00519
B2	0.00437
B3	0.0262
B4	0.0129

Target: T1, NOD mouse SIRP-α
Test: SPR
How it was run: as §1

Binder	Kd [nM]
B1	4.83
B2	2.92
B3	20.5
B4	61.2

The binders below were run against T2, BL6 mouse SIRP-α (assay: SPR).
How it was run: as §1

Binder	Kd [nM]
B1	10.3
B2	9.03
B3	497000
B4	11.5

Target: T3, BALBc mouse SIRP-α
Test: SPR
How it was run: as §1

Binder	Kd [nM]
B1	7.25
B2	5.77
B3	59.9
B4	38.3

Each binder was assayed against T13, human SIRPγ isoform 1 (human, UniProt Q9P1W8 29-147) (assay: SPR).
T13 construct: also called SIRPg; sirpg
How it was run: (§2)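 scFv-Fc antibody clones were captured from pre-filtered culture media onto anti-human IgG Fc, amine-coupled at about 4000 RU on a GLC chip in a ProteOn XPR36 instrument. SIRP analytes were passed over in PBS pH 7.4 with 0.01% Tween-20 at 25° C, and responses were double-referenced against interspot and buffer-blank signals. Curves were fitted to a 1:1 Langmuir model. Dissociation rate constants (koff) were taken from those fits.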
T13 sequence (Q9P1W8 29-147 limits assumed): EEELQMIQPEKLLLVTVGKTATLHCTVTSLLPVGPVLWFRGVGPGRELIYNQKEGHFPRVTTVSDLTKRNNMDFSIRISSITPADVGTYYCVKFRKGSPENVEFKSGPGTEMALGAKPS

Binder	binding result
B5	no binding (tested: Koff > 5 × 10^3 (legend))
B6	no binding (tested: Koff > 5 × 10^3 (legend))

Target: T4, mouse 129 SIRP-α D1 domain
Test: SPR
How it was run: as §2

Binder	binding result
B5	no binding (tested: Koff > 5 × 10^3 (legend))
B6	no binding (tested: Koff > 5 × 10^3 (legend))

These binders were tested against T5, C57BL/6 mouse SIRP-α D1 domain (assay: SPR).
How it was run: as §2

Binder	binding result
B5	no binding (tested: Koff > 5 × 10^3 (legend))
B6	no binding (tested: Koff > 5 × 10^3 (legend))
B7	no binding (tested: Koff > 5 × 10^3 (legend))
B8	no binding (tested: Koff > 5 × 10^3 (legend))

What follows are binders tested against T14, human SIRPβ isoform 1 (human, UniProt O00241 30-148) (assay: SPR).
T14 construct: also called SIRPb; sirpb1
T14 sequence (O00241 30-148 limits assumed): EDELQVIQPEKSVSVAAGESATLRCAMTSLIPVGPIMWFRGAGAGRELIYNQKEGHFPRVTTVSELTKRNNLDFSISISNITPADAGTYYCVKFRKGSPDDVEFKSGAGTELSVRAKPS
How it was run: as §2

Binder	binding result
B7	no binding (tested: Koff > 5 × 10^3 (legend))
B8	no binding (tested: Koff > 5 × 10^3 (legend))

Target: T6, high affinity SIRP-α D1 variant CV1-3
Test: SPR, Langmuir fit
How it was run: as §2

Binder	koff [s⁻¹]
B7	0.00482
B8	0.00453

The binders below were run against T15, human SIRP-α v1 D1 domain (human, UniProt P78324 31-149) (assay: SPR, Langmuir fit).
T15 construct: also called human v1
How it was run: as §2
T15 sequence (P78324 31-149 limits assumed): as the sequence (P78324 31-149 limits assumed) above

Binder	koff [s⁻¹]
B5	0.00415
B6	0.00337

What follows are binders tested against T16, human SIRP-α v2 D1 domain (human) (assay: SPR, Langmuir fit).
T16 construct: also called human v2
How it was run: as §2

Binder	koff [s⁻¹]
B5	0.000544
B6	0.000348
B7	0.000685
B8	0.000677

Target: T7, cynomolgus SIRP-α D1 domain (cyno1)
Test: SPR, Langmuir fit
How it was run: as §2

Binder	koff [s⁻¹]
B7	0.0026
B8	0.00351

Target: T8, cynomolgus SIRP-α D1 domain (cyno2)
Test: SPR, Langmuir fit
How it was run: as §2

Binder	koff [s⁻¹]
B5	0.00258
B6	0.00215
B7	0.00313
B8	0.00271

These binders were tested against T14, human SIRPβ isoform 1 (assay: SPR, Langmuir fit).
How it was run: as §2

Binder	koff [s⁻¹]
B5	0.000331
B6	0.00321

What follows are binders tested against T17, human SIRP-α v1 D1 domain (human, UniProt P78324 31-149) (assay: SPR, antibody immobilised on GLC chip).
T17 construct: also called human v1; human α v1
Description: (§3) All experiments were performed at 25° C. using a SPR-based ProteOn XPR36 biosensor (BioRad, Inc, Hercules, Calif.) equipped with GLC or NLC sensor chips. […] Purification was carried out by standard Protein A affinity column chromatography and eluted antibodies were stored in PBS buffer.
(§4) For the method using GLC chip, the analytes were injected and flowed over anti-SIRPα antibodies immobilized (˜1000 RUs) on GLC chips using Proteon™ Amine Coupling Kit. For the immobilization step, GLC chip was activated with EDAC/Sulpho-NHS 1:1 (Biorad) diluted 1/100 for 300 s at 25 μL/min. Anti-SIRPα antibodies were diluted to 80 nM concentration in 10 mM sodium acetate buffer pH 4.5 and immobilized to the chip at 30 μL/min for 50 s. Chip was inactivated with ethanolamine for 300 s at 25 μL/min. The analytes (e.g., SIRP-α from different species, SIRP-β, SIRP-γ) were injected in a “one-shot” kinetic mode at nominal concentrations of 100, 33, 11, 3.7, 1.2 and 0 nM. Association times were monitored for 90 s at 100 μL/min, and dissociation times were monitored for 1200 s. The surfaces were regenerated with a 2:1 v/v blend of Pierce IgG elution buffer/4M NaCl. […]
T17 sequence (P78324 31-149 limits assumed): as above

Binder	Kd [nM]
B9	7.32
B10	0.717
B11	6.18
B12	4.88
B13	4.99

The binders below were run against T18, human SIRPγ isoform 1 (human, UniProt Q9P1W8 29-147) (assay: SPR, antibody immobilised on GLC chip).
T18 construct: also called sirpg; sirp-g
Description: as §3, §4
T18 sequence (Q9P1W8 29-147 limits assumed): as the sequence (Q9P1W8 29-147 limits assumed) above

Binder	Kd [nM]
B9	28.8
B10	40
B11	19.3
B12	66.7
B13	61.7

Each binder was assayed against T19, human SIRP-α v2 D1 domain (human) (assay: SPR, antibody immobilised on GLC chip).
T19 construct: also called human v2; human α v2
Description: as §3, §4
T19 sequence (chain, as listed by the source limits assumed): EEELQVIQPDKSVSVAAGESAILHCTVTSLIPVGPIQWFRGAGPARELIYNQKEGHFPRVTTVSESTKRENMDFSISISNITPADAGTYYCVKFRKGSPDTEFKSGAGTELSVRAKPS

Binder	Kd [nM]
B9	12.7
B10	1.86
B11	12.5
B12	10.5
B13	8.28

Target: T9, NOD mouse SIRP-α D1 domain
Test: SPR, antibody immobilised on GLC chip
Description: as §3, §4

Binder	Kd [nM]
B9	5.42
B10	0.68
B11	5.98
B12	2.85
B13	2.44

Each binder was assayed against T10, C57BL/6 mouse SIRP-α D1 domain (assay: SPR, antibody immobilised on GLC chip).
Description: as §3, §4

Binder	Kd [nM]
B9	21.6
B10	15.3
B11	33.1
B12	16.3
B13	13.3

Target: T11, BALB/c mouse SIRP-α D1 domain
Test: SPR, antibody immobilised on GLC chip
Description: as §3, §4

Binder	Kd [nM]
B9	2.67
B10	0.422
B11	2.98
B12	2.09
B13	1.64
